The results in this text go back to patent US20190032036.

Holding throughout (assay): cell_activity
In series [1] the test system is SpCas9 R976A R976A (Streptococcus pyogenes).
Series [2] concerns the target SpCas9 K848A K848A (Streptococcus pyogenes) (UniProt Q99ZW2).
Series [3] deals with SpCas9 K1003A K1003A (Streptococcus pyogenes) (UniProt Q99ZW2).
Series [4] concerns the target SpCas9 R1060A R1060A (Streptococcus pyogenes) (UniProt Q99ZW2).
In series [5] the test system is SpCas9 H982A H982A (Streptococcus pyogenes).
For series [6], the target named is SpCas9 K855A (Streptococcus pyogenes) (UniProt Q99ZW2).
Series [7] has as its target SpCas9 R780A R780A (Streptococcus pyogenes) (UniProt Q99ZW2).
Series [8] has as its target SpCas9 K810A K810A (Streptococcus pyogenes) (UniProt Q99ZW2).

EMX1(1) sgRNA guide ; EMX1 OT25: the activity was 0.1 % indel in series [1] (WT 10.5); 0.1 % indel in series [2] (WT 10.5); 4.1 % indel in series [3] (WT 10.5); 1.3 % indel in series [4] (WT 10.5); 0.5 % indel in series [5] (WT 10.5); 0.2 % indel in series [6] (WT 10.5, on-target 25.1 in same table). Besides, the results for the activity in series [7] (WT 10.5) and in series [8] (WT 10.5) were 0 % indel and 0.1 % indel, respectively.

In the case of EMX1(1) sgRNA guide ; EMX1 OT46, the activity came out at 0.1 % indel in series [1] (WT 8.8); 0.1 % indel in series [2] (WT 8.8); 2.8 % indel in series [3] (WT 8.8); 1.8 % indel in series [4] (WT 8.8); 0.4 % indel in series [5] (WT 8.8); 0.3 % indel in series [6] (WT 8.8). The activity in series [7] (WT 8.8) and in series [8] (WT 8.8) was 0.1 % indel each time.
